These results are taken from patent US20090221985A1, “SYSTEM FOR IONTOPHORETIC TRANSDERMAL DELIVERY OF POLYMERIC AGENTS AND METHODS OF USE THEREOF” (priority 2005, published 2009).

Holding throughout (assay type): in vitro ADME
The nature of data set [1]: Iontophoretic delivery of hyaluronic acid (with BSA) through pig ear skin treated by chemical microporation. The note with it: Silver Nitrite microporated skin, iontophoresis as in Example 1. The method, then:
Bovine serum albumin (BSA; Sigma) was dissolved in 10 mM sodium phosphate pH 7.2 containing 0.15 M NaCl to yield BSA concentration of 10 mg/ml. Hyaluronic acid suspension (1 mg; Q-Med) was incubated with 0.1 ml of the BSA solution at 40° C. In addition, 0.1 ml glutamic acid (10 mM) was added to another sample of the hyaluronic acid-BSA solution to yield pH 4.0. Piece of a pig ear skin was exposed to chemical microporation using Silver Nitrite and then iontophoretic delivery of the complex was performed as described in Example 1 herein above.
Hyaluronic acid transmitted through the pig ear was stained by complexation with a copper phtalocyanin dye and measured by the Bradford reagent.

The nature of data set [2]: Iontophoretic delivery of collagen through pig ear skin treated by chemical microporation, Bradford assay. The conditions noted are these: Silver Nitrite microporated skin, 15V, 1 h. How it is done:
(§1) Collagen (100 mg/ml; Sigma) was dissolved in 10 mM sodium phosphate pH 8 containing 150 mM NaCl or in 10 mM sodium phosphate pH 8 containing 150 mM NaCl to which 10 mM glutamic acid solution was added (0.2 ml of glutamic acid were added to 1 ml of collagen to yield pH 4.0), and the glutamic acid solution was incubated at room temperature for 1 hour. Thus, positively charged collagen was driven into the skin by the positive electrode and negatively charged collagen was driven by the negative electrode. The amount of collagen transmitted through the skin was measured by the Bradford assay (Bradford M. M. Anal Biochem. 72, 248-254, 1976).
Pig ear skin piece was treated by chemical microporation using Silver Nitrite and then iontophoresis of collagen was performed as follows:
Twenty ml reservoir was mounted over the skin piece allowing its wetting (FIG. 5). Iontophoretic transmission experiment using the same solutions as described in Example 1 herein above was performed on each sample. Electrodes were placed in the upper and lower reservoirs. At the end of the experiment the amount of collagen transmitted through the skin was measured by the Bradford assay (Bradford M. M. Anal Biochem. 72, 248-254, 1976). The iontophoresis was performed under the following conditions: 1. Distance between electrodes (upper and lower reservoir)—2 cm;

Data set [3] is described as follows: Iontophoretic delivery of collagen through intact (untreated) pig ear skin piece, Bradford assay. The note with it: untreated 1.5 mm pig ear skin; 15V DC, 0.1 mA, 30 min; collected in 5 min intervals (FIGS. 3 and 4). The method, then: Measurements were performed on collagen delivery through a 1.5 mm thick pig ear skin. The skin piece was obtained by slicing with scalpel a 1.5 mm thick section of a pig ear and fixed it over a 2 cm diameter laboratory vial. The vial was filled with a 50 ml solution of 0.05% NaCl in water to contact with the skin piece.
The experiment was performed by measuring the amount of collagen transmitted through the skin piece into the vial's solution by iontophoresis.
as §1
The experiments were performed at a 15V DC applied voltage and at a current of 0.1 mA for 30 min.
The amount of collagen collected in 5 min intervals was measured by the Bradford reagent.

For the substance Hyaluronic acid, the “Transmitted amount” value in data set [1] (initial amount 0.01 mg) was 0.007 mg; in data set [1] (initial amount 0.05 mg) it was 0.030 mg; in data set [1] (initial amount 0.1 mg), 0.046 mg. Besides, the entries for the “Transmitted amount (%)” value in data set [1] (initial amount 0.01 mg), in data set [1] (initial amount 0.05 mg) and in data set [1] (initial amount 0.1 mg) were 70%, 60% and 46%, respectively.
Collagen: the “Transmitted amount” value in data set [2] (initial amount 0.1 mg) amounted to 0.04 mg; in data set [2] (initial amount 0.5 mg), 0.3 mg; in data set [2] (initial amount 1.0 mg), 0.48 mg; in data set [2] (initial amount 10.0 mg), 5.6 mg; in data set [2] (initial amount 20.0 mg) it was 11.0 mg. In addition, the “Transmitted amount (%)” value worked out at 40% in data set [2] (initial amount 0.1 mg); 60% in data set [2] (initial amount 0.5 mg); 48% in data set [2] (initial amount 1.0 mg); 56% in data set [2] (initial amount 10.0 mg); 55% in data set [2] (initial amount 20.0 mg). In data set [3], the “collagen transmitted through the skin piece by iontophoresis” value is “iontophoretically transmitted through the piece of pig ear skin”.
